Test results from patent US11840557B2, “Wnt7 variants capable of activating g-protein coupled receptor (Gpr)124/Reck/frizzled/lipoprotein receptor-related protein (LRP)-mediated Wnt signaling” (UNIVERSITÉ LIBRE DE BRUXELLES, priority 2018, dated 2023).

Experiments:
HA-Reck = biological target: T1, HA-Reck (Homo sapiens, UniProt O95980); assay: Proximity ligation assay (PLA), anti-V5/anti-HA, V5-tagged Wnt ligand and HA-Reck in GPR124−/−;RECK−/− cells; assay type: cell-based; conditions: GPR124−/−;RECK−/− cells co-expressing HA-Reck
T1 construct: expressed in transfected cells; host or cells: GPR124-/-;RECK-/- HEK293 (STF) cells, pCS2 / CMV promoter
T1 sequence (O95980 23-942): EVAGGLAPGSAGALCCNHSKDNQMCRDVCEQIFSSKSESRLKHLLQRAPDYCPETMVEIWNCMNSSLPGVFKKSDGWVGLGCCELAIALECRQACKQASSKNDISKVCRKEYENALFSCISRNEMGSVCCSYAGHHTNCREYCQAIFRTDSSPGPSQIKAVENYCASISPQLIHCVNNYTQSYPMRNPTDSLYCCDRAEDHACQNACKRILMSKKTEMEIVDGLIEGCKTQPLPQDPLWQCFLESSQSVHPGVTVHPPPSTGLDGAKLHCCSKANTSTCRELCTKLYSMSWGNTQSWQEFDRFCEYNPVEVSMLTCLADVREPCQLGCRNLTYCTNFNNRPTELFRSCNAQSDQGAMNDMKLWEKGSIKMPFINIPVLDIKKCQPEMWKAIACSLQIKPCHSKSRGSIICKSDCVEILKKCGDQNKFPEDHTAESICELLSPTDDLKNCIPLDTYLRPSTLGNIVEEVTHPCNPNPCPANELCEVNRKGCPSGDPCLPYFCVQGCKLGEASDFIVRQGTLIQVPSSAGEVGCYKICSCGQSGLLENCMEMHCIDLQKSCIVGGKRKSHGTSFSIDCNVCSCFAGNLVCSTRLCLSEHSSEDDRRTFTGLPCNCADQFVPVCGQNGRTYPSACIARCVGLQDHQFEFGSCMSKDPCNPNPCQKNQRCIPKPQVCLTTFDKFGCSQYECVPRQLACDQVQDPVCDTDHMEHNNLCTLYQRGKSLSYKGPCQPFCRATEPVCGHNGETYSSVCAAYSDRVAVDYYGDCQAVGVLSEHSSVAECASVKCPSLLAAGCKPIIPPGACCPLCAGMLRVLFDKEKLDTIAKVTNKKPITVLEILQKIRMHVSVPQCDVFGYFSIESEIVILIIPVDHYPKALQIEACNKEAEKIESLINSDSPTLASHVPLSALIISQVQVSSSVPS
Experimental: 1.7. Immunofluorescence and Proximity Ligation Assay Cells were grown in glass-coated chambers (IBIDI, Martinsried, Germany) and transfected after 24 h with Lipofectamine 2000 (Life Technologies, Carlsbad, Calif.). Cells were fixed with 4% paraformaldehyde for 10 min at room temperature (RT) 48 h post transfection. For immunofluorescence staining (IF), cells were blocked in 1% BSA-PBS for 30 min before being exposed to primary antibodies for 1 h at RT. After three PBS washes, cells were incubated with secondary antibodies for 1 h at RT. For anti-V5 staining of Wnt ligands, cells were additionally washes for 10 min in PBS 0.1% Tween 20 before incubation with the secondary antibody solution. For the proximity ligation assay (PLA) (Sigma-Aldrich, St. Louis, Mo.), cells were blocked for 30 min at 37° C. with the Blocking solution provided by the manufacturer before being incubated with the primary antibodies for 1 h at RT. Cells were washed three times and incubated with the PLA probes anti-rabbit PLUS and anti-mouse MINUS for 1 h at 37° C. After two PBS washes, cells were incubated with the Duolink Ligation solution for 30 min at 37° C. After two PBS washes, cells were incubated with the Duolink Amplification solution for 100 min at 37° C. The following antibodies were used: mouse monoclonal anti-V5 (R96025, Life Technologies, Carlsbad, Calif.) at 1:500 for IF and PLA, purified polyclonal rabbit anti-HA (H6908, St. Louis, Mo.) at 1:400 for IF and PLA and anti-mouse Alexa488-conjugated secondary antibody (Thermo Fisher Scientific, Waltham, Mass.) at 1:5000. Cells were stained for 2 min with Hoechst diluted to 10 μg ml-1 in PBS.
Cells and zebrafish embryos were imaged with an LSM710 confocal microscope and images were processed in ImageJ. Images of eye fusion phenotypes were taken on Leica M165 FC. Representations of brain vasculature were generated using Imaris software (BitPlane, Zurich, Switzerland). The percentage of PLA positive (PLA+) areas and DAPI positive (DAPI+) areas were calculated using ImageJ on images containing about 50 to 100 cells. The PLA+ area was measured after manually applying a fixed threshold. The DAPI+ area was measured after applying the “default” thresholding method in Image J.

Gpr124/Reck/Fz/LRP = biological target: T2, Gpr124/Reck/Fz/LRP (UniProt O70421+O95980); assay: STF dual luciferase assay, Gpr124/Reck-dependent signaling in HEK293-STF cells; assay type: cell-based; conditions: Gpr124, RECK and Fz1 transfection
T2 construct: host or cells: HEK293-STF cells
Experimental: Cells were plated into 96-well plates and transfected after 24 h in triplicate with Lipofectamine 2000 (Life Technologies, Carlsbad, Calif.). The amount of plasmid DNA transfected per well was optimized for each expression vector: Renilla luciferase (0.5 ng) (was kindly provided by Jeremy Nathans (John Hopkins)), Wnt ligands (20 ng), Fz receptors (5 ng), Lrp (2.5 ng), Gpr124 (10 ng), Reck (5 ng) and Dkk-1 (10 ng) unless otherwise indicated. The total amount of DNA was adjusted to 100 ng per well with the empty pCS2 vector. Dual luciferase assays were performed using the STF cell line or by co-transfecting 20 ng of M50 Super 8× TOPFlash plasmid (Addgene plasmid #12456). Cells were harvested in passive lysis buffer (E1960, Promega, Wis.) and the activities of the Firefly and Renilla luciferases were measured sequentially using the Dual-Luciferase Reporter Assay system (E1960, Promega, Madison, Wis.) 48 h post-transfection. […] Luciferase activity was measured 24 h after co-culture.
Cells were plated into 96-well plates and transfected after 24 h in triplicate with Lipofectamine 2000 (Invitrogen, Carlsbad, Calif.). […] Cells were harvested in passive lysis buffer (E1960, Promega, Wisconsin) and the activities of the Firefly and Renilla luciferases were measured sequentially using the Dual-Luciferase Reporter Assay system (E1960, Promega, Madison, Wis.) 48 h post-transfection.

T2 sequence (O70421 69-642, one chain of several): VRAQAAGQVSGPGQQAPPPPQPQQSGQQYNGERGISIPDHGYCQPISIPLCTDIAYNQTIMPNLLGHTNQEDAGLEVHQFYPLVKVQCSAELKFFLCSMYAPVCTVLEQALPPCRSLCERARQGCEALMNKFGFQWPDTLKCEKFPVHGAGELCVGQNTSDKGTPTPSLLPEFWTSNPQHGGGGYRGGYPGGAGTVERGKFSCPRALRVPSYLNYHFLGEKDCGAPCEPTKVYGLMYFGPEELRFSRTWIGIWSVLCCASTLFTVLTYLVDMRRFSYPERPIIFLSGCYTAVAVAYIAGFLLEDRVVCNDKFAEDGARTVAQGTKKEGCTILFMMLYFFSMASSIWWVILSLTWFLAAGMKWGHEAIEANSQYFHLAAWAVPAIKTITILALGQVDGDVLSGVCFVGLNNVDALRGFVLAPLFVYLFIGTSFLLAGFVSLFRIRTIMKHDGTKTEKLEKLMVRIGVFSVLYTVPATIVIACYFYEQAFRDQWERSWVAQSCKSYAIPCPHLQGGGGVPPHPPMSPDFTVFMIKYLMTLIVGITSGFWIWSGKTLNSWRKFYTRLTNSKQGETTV
T2 sequence (Q96PE1 34-1338 partner, one chain of several): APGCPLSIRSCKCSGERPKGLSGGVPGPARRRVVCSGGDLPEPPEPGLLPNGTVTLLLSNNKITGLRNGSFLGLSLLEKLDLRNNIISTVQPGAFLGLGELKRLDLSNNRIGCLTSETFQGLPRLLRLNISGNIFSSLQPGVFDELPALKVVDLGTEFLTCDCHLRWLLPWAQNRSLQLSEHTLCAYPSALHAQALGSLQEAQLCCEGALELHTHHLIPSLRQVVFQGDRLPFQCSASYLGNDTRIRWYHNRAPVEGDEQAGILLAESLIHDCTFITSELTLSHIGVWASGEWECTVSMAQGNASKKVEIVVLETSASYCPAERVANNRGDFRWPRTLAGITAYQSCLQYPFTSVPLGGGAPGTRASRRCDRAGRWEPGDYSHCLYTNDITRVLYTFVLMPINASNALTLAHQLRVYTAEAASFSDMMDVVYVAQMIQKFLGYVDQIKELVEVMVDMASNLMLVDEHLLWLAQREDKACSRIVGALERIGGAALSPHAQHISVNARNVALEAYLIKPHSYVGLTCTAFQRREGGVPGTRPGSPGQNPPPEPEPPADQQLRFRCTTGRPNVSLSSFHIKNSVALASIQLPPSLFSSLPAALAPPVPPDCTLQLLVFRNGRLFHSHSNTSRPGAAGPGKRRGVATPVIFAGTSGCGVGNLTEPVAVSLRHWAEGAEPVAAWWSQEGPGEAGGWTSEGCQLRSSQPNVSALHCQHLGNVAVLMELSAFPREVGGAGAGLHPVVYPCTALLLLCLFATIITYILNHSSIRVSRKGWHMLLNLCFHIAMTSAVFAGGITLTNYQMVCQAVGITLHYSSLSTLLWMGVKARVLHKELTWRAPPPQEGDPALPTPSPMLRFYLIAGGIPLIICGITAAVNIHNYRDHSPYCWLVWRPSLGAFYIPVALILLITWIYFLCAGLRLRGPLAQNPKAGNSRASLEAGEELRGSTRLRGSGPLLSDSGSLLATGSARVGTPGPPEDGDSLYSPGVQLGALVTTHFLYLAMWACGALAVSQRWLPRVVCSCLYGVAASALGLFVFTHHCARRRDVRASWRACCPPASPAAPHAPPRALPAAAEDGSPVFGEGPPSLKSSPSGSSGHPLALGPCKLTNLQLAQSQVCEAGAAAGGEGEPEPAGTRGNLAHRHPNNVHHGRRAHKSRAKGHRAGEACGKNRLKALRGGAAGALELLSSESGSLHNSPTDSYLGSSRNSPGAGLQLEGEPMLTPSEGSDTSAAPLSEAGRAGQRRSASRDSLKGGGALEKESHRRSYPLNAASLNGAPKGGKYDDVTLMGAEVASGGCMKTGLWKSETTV
T2 sequence (O75581 20-1613 partner, one chain of several): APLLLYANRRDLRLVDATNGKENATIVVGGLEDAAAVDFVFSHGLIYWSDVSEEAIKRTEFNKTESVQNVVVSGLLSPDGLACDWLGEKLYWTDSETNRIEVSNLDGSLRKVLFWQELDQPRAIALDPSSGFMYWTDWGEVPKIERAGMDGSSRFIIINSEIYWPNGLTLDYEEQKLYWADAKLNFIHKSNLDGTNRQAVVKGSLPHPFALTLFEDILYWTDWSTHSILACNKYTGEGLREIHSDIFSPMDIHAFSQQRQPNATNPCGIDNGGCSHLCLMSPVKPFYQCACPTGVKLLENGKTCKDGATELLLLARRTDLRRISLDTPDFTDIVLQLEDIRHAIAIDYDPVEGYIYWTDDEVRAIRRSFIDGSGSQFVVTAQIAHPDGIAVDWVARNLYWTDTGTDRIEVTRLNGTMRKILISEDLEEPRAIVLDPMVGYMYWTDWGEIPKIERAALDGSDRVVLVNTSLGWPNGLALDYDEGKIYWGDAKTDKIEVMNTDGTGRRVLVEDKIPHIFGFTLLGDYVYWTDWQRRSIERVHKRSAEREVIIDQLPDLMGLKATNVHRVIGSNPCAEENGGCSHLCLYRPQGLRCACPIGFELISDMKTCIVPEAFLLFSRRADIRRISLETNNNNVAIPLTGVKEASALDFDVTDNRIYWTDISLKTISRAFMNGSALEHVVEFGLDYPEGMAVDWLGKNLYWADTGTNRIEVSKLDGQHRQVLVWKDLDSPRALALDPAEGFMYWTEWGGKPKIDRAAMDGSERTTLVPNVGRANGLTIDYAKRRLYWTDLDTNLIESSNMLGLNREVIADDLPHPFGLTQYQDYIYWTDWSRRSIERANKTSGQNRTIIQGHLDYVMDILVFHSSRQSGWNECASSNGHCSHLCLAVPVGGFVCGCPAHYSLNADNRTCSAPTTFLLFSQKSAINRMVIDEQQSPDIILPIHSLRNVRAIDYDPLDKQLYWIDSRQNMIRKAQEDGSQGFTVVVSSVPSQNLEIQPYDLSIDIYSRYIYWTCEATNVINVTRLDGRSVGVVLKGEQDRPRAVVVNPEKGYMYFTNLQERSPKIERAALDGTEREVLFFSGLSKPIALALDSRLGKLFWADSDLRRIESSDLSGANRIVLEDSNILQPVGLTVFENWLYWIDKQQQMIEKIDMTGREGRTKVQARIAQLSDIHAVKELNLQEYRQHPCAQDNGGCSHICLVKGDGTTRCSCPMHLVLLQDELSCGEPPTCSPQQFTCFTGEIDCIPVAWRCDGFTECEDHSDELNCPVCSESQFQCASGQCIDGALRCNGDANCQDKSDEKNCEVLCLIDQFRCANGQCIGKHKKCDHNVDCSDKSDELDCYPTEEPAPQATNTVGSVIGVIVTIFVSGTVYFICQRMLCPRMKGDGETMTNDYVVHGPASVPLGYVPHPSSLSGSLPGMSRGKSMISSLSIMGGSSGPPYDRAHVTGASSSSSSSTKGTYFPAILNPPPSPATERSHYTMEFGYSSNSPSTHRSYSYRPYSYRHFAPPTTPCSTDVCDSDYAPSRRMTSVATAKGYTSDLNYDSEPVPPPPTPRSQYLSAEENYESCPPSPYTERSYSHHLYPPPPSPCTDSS

B1: Wnt7a^1-278: the N-terminal domain of Wnt7a, single domain truncated variant (protein)
chain: LGASIICNKIPGLAPRQRAICQSRPDAIIVIGEGSQMGLDECQFQFRNGRWNCSALGERTVFGKELKVGSREAAFTYAIIAAGVAHAITAACTQGNLSDCGCDKEKQGQYHRDEGWKWGGCSADIRYGIGFAKVFVDAREIKQNARTLMNLHNNEAGRKILEENMKLECKCHGVSGSCTTKTCWTTLPQFRELGYVLKDKYNEAVHVEPVRASRNKRPTFLKIKKPLSYRKPMDTDLVYIEKSPNYC
modifications: left off: small tags and cut ends
notes: the N-terminal domain of Wnt7a, single domain truncated variant
HA-Reck
  Reck binding (anti-V5/anti-HA PLA signal): still binds Reck
HA-Reck; listed as Wnt7a^NTD
  Reck binding (anti-V5/anti-HA PLA signal): bound to Reck as potently as full-length Wnt7a
Gpr124/Reck/Fz/LRP
  signaling capacity via Gpr124/Reck/Fz1: ~40%
